Laboratory results published in patent US20240174744A1 (SCIRHOM, published 2024).

How the values were obtained:
[1] = molecular target: T1, human iRhom2 (inactive rhomboid protein 2, isoform 1), endogenously expressed on human cells (human, UniProt Q6PJF5 1-856); experiment: cell-based or functional assay
T1 sequence: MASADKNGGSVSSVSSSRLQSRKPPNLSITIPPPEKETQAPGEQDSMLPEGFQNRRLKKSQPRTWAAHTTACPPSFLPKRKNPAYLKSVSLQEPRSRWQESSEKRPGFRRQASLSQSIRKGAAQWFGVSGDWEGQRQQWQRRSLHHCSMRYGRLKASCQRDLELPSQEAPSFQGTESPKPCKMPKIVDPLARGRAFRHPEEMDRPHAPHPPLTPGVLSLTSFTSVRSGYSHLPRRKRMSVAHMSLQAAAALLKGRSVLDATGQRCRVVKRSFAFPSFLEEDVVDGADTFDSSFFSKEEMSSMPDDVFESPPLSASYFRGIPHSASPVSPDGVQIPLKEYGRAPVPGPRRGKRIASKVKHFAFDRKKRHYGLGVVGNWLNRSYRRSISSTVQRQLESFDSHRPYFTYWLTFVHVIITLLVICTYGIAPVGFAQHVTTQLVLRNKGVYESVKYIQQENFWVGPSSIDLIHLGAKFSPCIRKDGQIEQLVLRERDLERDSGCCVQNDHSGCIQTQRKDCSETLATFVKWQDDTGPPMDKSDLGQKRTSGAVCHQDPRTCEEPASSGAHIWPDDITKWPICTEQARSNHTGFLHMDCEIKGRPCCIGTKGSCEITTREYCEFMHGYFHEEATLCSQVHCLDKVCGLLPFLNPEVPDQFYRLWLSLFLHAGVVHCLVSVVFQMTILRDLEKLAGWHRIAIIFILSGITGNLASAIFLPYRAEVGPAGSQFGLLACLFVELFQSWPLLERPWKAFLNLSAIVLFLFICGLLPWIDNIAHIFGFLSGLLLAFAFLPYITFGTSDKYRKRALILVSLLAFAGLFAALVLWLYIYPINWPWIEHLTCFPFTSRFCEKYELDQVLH

[2] = molecular target: T2, dog iRhom2 full length wild type, C-terminally tagged with 3 consecutive copies of the T7 epitope (dog, UniProt Q00M95 1-827); experiment: FACS on MEF-DKO-iR2 Dog cells, 3 µg/ml
T2 construct: whole, on cells; also called Dog-iR2-FL-WT-T7
T2 sequence: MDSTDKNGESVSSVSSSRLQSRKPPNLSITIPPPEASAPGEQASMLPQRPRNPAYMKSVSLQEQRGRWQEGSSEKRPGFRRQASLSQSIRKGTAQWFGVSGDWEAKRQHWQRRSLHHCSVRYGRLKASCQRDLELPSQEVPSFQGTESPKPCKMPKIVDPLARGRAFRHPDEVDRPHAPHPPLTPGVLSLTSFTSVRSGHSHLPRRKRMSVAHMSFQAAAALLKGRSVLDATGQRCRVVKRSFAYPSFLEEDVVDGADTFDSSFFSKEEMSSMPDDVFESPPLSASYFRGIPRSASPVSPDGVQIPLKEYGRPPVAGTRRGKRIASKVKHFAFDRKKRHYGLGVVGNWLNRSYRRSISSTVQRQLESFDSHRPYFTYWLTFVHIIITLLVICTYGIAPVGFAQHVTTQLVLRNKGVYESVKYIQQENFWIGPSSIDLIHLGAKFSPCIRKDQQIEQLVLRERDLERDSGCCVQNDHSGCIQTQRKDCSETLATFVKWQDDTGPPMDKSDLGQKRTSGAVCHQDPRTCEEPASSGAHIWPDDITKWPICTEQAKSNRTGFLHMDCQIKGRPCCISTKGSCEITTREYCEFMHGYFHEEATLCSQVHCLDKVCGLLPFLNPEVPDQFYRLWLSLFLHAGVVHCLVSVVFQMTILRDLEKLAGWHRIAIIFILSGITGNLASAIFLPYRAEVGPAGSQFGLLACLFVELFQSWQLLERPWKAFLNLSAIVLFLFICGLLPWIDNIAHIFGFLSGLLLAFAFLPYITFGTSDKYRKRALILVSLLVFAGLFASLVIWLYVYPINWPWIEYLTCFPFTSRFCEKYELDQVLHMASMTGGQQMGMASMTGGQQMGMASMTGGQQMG
Procedure: In brief, immortalized MEF-DKO-EV control cells, MEF-DKO-rhesus-iR2-FL-WT-T7 cells, MEF-DKO-cyno-iR2-FL-WT-T7 cells, MEF-DKO-dog-iR2-FL-WT-T7 cells and MEF-DKO-rabbit-iR2-FL-WT-T7 cells, as well as their respective iRhom1 counterparts, were harvested with 10 mM EDTA in PBS, washed and resuspended in FACS buffer (PBS, 3% FBS, 0.05% sodium azide), and seeded in Nunc U-bottom 96-well plates (Thermo Fisher Scientific, USA) at approximately 3×10⁵ cells per well. To pellet cells and remove supernatants, the plates were centrifuged at 1,500 rpm and 4° C. for 3 minutes. For primary staining, cells were resuspended in 100 μl per well of either FACS buffer alone (controls), mouse monoclonal anti-T7 IgG (Merck Millipore, USA) at 3 μg/ml FACS buffer or the antibodies of the present disclosure also at 3 μg/ml FACS buffer and incubated on ice for 1 hour. Afterwards, plates were centrifuged at 1,500 rpm and 4° C. for 3 minutes and washed twice with 200 μl per well of FACS buffer. For secondary staining, cells were spun down and resuspended in 100 μl per well of PE-conjugated goat anti-mouse IgG F(ab′)2 detection fragment (Dianova, Germany) diluted 1:100 in FACS buffer. Protected from light, the cell suspensions were incubated on ice for 1 hour. […] Finally, cells were resuspended in 150 μl per well of FACS buffer and analyzed using a BD Accuri™ C6 Plus flow cytometer (Becton Dickinson, Germany).

[3] = molecular target: T3, human iRhom1, endogenously expressed on RH-30 cells (human, UniProt Q96CC6 1-855); experiment: FACS on RH-30 cells (iRhom1-positive, not iRhom2-positive)
T3 construct: RH-30 cells are described as endogenously negative for iRhom2 but endogenously expressing iRhom1; also called NP_071895.3
T3 sequence: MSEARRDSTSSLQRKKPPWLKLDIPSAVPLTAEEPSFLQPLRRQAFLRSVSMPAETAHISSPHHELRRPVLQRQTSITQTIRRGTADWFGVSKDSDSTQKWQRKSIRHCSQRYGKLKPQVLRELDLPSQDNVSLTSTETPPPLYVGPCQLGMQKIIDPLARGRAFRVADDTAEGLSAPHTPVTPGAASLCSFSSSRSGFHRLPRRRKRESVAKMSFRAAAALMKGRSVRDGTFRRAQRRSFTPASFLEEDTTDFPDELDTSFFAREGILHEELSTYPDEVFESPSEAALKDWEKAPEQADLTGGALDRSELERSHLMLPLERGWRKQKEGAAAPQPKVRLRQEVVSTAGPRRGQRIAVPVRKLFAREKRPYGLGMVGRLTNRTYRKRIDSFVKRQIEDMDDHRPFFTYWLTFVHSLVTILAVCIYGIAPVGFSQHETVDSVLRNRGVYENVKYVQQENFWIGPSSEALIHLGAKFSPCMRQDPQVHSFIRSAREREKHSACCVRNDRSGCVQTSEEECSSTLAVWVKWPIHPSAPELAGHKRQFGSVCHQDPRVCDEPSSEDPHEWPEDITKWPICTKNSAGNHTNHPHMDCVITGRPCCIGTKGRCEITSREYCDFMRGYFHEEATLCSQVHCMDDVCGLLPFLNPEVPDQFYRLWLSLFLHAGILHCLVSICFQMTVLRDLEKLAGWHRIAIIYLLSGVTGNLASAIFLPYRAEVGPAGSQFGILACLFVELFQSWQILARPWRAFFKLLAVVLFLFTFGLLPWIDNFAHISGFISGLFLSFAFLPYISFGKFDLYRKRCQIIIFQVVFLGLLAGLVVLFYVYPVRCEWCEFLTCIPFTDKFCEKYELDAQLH

Binder	inhibition of LPS-induced release of TNFα from PBMCs of rheumatoid arthritis patients, 1 µg/ml, chimeric antibody [1]	inhibition of PMA-induced release of HB-EGF from PBMCs of rheumatoid arthritis patients, 1 µg/ml, chimeric antibody [1]	inhibition of PMA-induced release of HB-EGF from THP-1 cells, 3 µg/ml [1]	inhibition of PMA-induced release of HB-EGF from U-937 cells [1]	inhibition of PMA-induced release of IL-6R from PBMCs of rheumatoid arthritis patients, 1 µg/ml, chimeric antibody [1]	inhibition of PMA-induced release of IL-6R from U-937 cells, 3 µg/ml [1]	inhibition of PMA-induced release of TNFα from U-937 cells, 3 µg/ml [1]	binding result [2]	binding result [3]
chimeric version of antibody 16 (antibody, V domains shown, Chimeric version made in CHO cells, detected with anti-human IgG; the variable domains are those of clone #16; also called ch16) VH: QVTLKESGPGILQPSQTLSLTCSFSGFSLSTFALGVGWIRQPSGRGLEWLAHIWWDDDKYYNPALKSRLTISKDTSKNHVFLKIANVDTADTATYYCARITTYYYGMDYWGQGTSVTVSS VL: DIVLSQSPATLSVTPGDSVSLFCRASQSIGNHLHWYQQESHASPRLLIKYASQSISGIPSRFSGSGSGTDFTLSINSVETEDFGMYFCQQSYNWPLTFGAGTKLELK	83.6 % inhibition	66 % inhibition	73.6 % inhibition	101 % inhibition	72.3 % inhibition	84.3 % inhibition	93.7 % inhibition	binds	no binding (tested: 3 µg/ml)
chimeric version of antibody 22 (antibody, V domains shown) VH: QVTLKESGPGILQPSQTLSLTCSFSGFSLSTFGMGVGWIRQPSGKGLEWLAHIWWDDEKYYNSALKSRLTISKATSKNQVFLKIANVDTADTATYYCARISNYGSNYWYFNVWGTGTTVTVSS VL: QVVLTQSPALMSASPGEKVTMTCSAGSSVSYMYWYQQKPGSSPRVLIYDTSNLASGVPARFTGSGSGTSYSLTISRMEAEDAATYYCQQWNSYPLTFGAGTKLELK	76.5 % inhibition	54.7 % inhibition	81.9 % inhibition	103 % inhibition	61.1 % inhibition	85.6 % inhibition	96.5 % inhibition	–	–
chimeric version of antibody 42 (antibody, V domains shown) VH: QVTLKESGPGILQPSQTLSLTCSLSGFSLSTFGRGVGWIRQPSGKGLEWLAHIWWDDEKYYNPALKSRLTISKDTSKNQVFLRIANVDTADTATYYCARIQNYGSNYWYFDVWGTGTTVTVSS VL: LIVLTQSPAIMSASPGEKVTMTCGATSRISYMFWYQQKPGSSPRVLIYDTSNLASGVPVRFSGSGSGTSYSLTISRVEAEDVATYYCQQWNSYPLTFGAGTKLELK	82.1 % inhibition	76.1 % inhibition	80.8 % inhibition	103 % inhibition	73.5 % inhibition	91.8 % inhibition	96.5 % inhibition	–	–
chimeric version of antibody 44 (antibody, V domains shown) VH: QVTLKESGPGILQPSQTLSLTCSFSGFSLSTFGMGVGWIRQPSEKGLEWLAHIWWDDDKYYNPALKSRLTISKDTSKNQIFLKITNVDTAETATYYCSRIGNYGSNYWYFDVWGTGTTVTVSS VL: QIVLTQSPAVMSASPGEKVTMTCTASSSVYYMYWYQQTPGSSPRLLIYDTSNLASGVPVRFSGSGSGTSYSLTISRMEAEDAATYYCQQWNTYPLTFGAGTKLELK	70.2 % inhibition	37.8 % inhibition	70.7 % inhibition	99.2 % inhibition	53.1 % inhibition	85.2 % inhibition	89.2 % inhibition	–	–
chimeric version of antibody 34 (antibody, V domains shown) VH: QVTLKESGPGILQPSQTLSLTCSFSGFSLSTFSLGVGWIRQSSGKGLEWLAHIWWDDEKYYNPALKSRLTISKDTSKNQVFLKIANVDAADTATYYCARAYYSKSYYALDYWGQGTSVTVSS VL: DIQMTQSPSSLSASLGERVSLTCRASQEISGYLSWLQQKPDGTIKRLIYAASTLDSGVPKRFSGSRSGSDYSLAISSLESEDFADYYCLQYANFPFTFGSGTKLEIK	66.6 % inhibition	30.6 % inhibition	76.1 % inhibition	98.1 % inhibition	45.6 % inhibition	82.8 % inhibition	87.4 % inhibition	–	–
